Results published in the RNAGym collection of RNA variant scans (doi:10.1073/pnas.2313332121).

B1: TPR t1 (parent)
chain: GACCAAUCUGCCCUCAGAGCUCGAGAACAUCUUCGGAUGCAGAGGAGGCAGGCUUCGGUGGCGCGAUAGCGCCAACGUCCUCAACCUCCAAUGCAUCCCACCACAUGAUGAUGCCUGAAGAGCCUUGGUUUUUUG

Variants of: B1
Test: polymerase ribozyme fitness, log enrichment relative to wild type (log ratio); higher = more active; in vitro selection for triplet polymerase activity
How it was run: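 Only genotypes with ≥10 input reads and ≥1 read per output were kept after Illumina sequencing of input and output libraries. These libraries were PCR-built, transcribed mutants of each subunit of a heterodimeric triplet polymerase ribozyme, each put through one triplicate in vitro selection round with frozen incubation at −7 °C, gel excision of extended constructs, streptavidin-bead capture and RT-PCR. Fitness is a logarithmic ratio of genotype enrichment to wild-type enrichment, from inverse-variance-weighted replicate averages, with the logarithm in base 2.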

Row | Variant | polymerase ribozyme fitness (log ratio)
1 | C12A C53G U92C | -1.45
2 | C28U C56G | -2.75
3 | C56U C73G C115U | -3.6
4 | C31G U38G G51U G52C C94G G120U | -6.47
5 | G51A U78A C88G A121U | -1.45
6 | G47A U96A C98G | -6.21
7 | C11A G122U | 0.0729
8 | A43C G61U C85U | -2.37
9 | C11A C22U A91U C102U C115U G135U | -6.8
10 | C13A A50C G52U G93C | -4.43
11 | C3G C13U G63U A111C | -2.54
12 | A29G U55C G63U U87A G113C | -4.13
13 | G113A A121G | -0.104
14 | A27C A29U C56G | -4.23
15 | G44U C114U U132A | -2.69
16 | C49G G69C U125G | -3.42
17 | C11U G63U A84U C89U | -2.9
18 | C73A | 0.0792
19 | A27U C79A | -3.85
20 | C20A G39A C80U A91C | -6.34
21 | G69A G113U | -5.37

Row | Variant | polymerase ribozyme fitness (log ratio)
22 | A37G C64U U78C C86G | -4.56
23 | C8G A46G A66C A90U | -4.16
24 | G57U C88G | -1.99
25 | G60A G120A | 0.658
26 | C11A C13U | -1.75
27 | C12U G47U G63A U129A | -3.16
28 | C70U C76G G77A G113C | -3.85
29 | A18U G71A G93U U131G | -5.74
30 | C72A U109A | -4.06
31 | A26G G93A | -2.29
32 | C22G C31U G51C U81A G93A C123U | -6.15
33 | U32C G36A G60U | -2.12
34 | C15U G117U | -3.29
35 | A43U C49U A75U G113C C123U | -3.62
36 | C13G C53G | -1.53
37 | G57U G117U | -2.86
38 | G69U A119U | 0.577
39 | C4A G69U G110A U112A G117A | -3.21
40 | C82A G120C | -0.101
41 | A90G C102A | -1.25
42 | C12A C73A G120C A121U | 2.42

Row | Variant | polymerase ribozyme fitness (log ratio)
43 | G52C G122A | -1.3
44 | A41U A43U G113A C124A | -1.71
45 | U7G A41U C62U U132C | -0.941
46 | G48A C62G | -2.29
47 | C76A G127U | -2.17
48 | G25U A46U | -5.86
49 | A26G G63U A95U C99U | -5.64
50 | G60C C102A G110A | -4.88
51 | C53U G58U C70U | -0.221
52 | G63U U132C | -2.69
53 | C13U C56U C97G G127A | -4.74
54 | A46U C70A G120U | -1.59
55 | C3A C22G A37G G71A A111G | -6.05
56 | A18U G44A | -2.99
57 | U7G A16C U55G C88U A95U | -1.79
58 | A2G C70A C123U | -0.0496
59 | G42U G60A C101U A121G | 0.281
60 | C11G C53G | -1.43
61 | G10U C22A C72U U92G A105U A118G | -7.38
62 | C8A A83G C104U U129A | -2.16
63 | C28U G45A G63C | -3.75

Row | Variant | polymerase ribozyme fitness (log ratio)
64 | C15U C70G C97U | -3.09
65 | C56U C123U | 1.04
66 | U9G C13A U59A | -0.0719
67 | A6G G36C C72U C80A U116A C123A | -5.42
68 | G61A U78A U126G | -2.02
69 | C70U U106G C124U | -1.06
70 | A16U A95C | -2.59
71 | A26C G36U A41U G120U U132A | -5.17
72 | C12U C86G | -0.52
73 | G10U C124U | 1.37
74 | C13A C70U C114G | -6.69
75 | C8U C13G A26C A74C | -6.04
76 | C49U C53A | -0.289
77 | A6U C8G G60A C72A U130C | -0.0324
78 | G36U G63A | -1.69
79 | U78C A103U | -5.46
80 | A37U G39U | -1.39
81 | G63U C124G | 0.287
82 | C53A G71U C85A | -0.672
83 | G35A G120C C124A | -3.97
